Experimental findings from patent publication US20130005646A1 (Novo Nordisk, published 2013) are described below.

The target of test [1] is T1, human calcitonin (a) receptor (human, UniProt P30988 25-474).
T1 sequence (looked up): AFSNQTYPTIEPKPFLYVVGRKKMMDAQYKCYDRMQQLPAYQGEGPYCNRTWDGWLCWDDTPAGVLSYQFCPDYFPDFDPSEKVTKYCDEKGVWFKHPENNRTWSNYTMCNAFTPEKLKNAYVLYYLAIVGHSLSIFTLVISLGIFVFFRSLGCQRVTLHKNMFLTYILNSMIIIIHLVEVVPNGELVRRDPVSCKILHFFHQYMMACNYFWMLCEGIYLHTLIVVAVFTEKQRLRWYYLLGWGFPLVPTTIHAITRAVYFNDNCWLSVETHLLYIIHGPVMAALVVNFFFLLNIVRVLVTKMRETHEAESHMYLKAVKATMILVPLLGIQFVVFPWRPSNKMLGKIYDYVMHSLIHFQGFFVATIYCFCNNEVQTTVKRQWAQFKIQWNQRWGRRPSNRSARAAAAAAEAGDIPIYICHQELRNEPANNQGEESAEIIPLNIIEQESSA
As to the kind of experiment: cell-based or functional assay.

Test [2] has as its target T2, human amylin 3(a) receptor (human calcitonin receptor + RAMP-3) (human, UniProt P30988 25-474; O60896 24-148).
T2 sequence (looked up) 1: T1 sequence (looked up)
T2 sequence (looked up) 2: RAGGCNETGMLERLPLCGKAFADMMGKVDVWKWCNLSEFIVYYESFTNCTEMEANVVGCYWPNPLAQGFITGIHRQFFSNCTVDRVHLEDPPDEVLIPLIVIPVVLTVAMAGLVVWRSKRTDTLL
As to the kind of experiment: cell-based or functional assay.

Starred links: 1 amine or outer side, 2 acyl side, 3 side chain; linkers in the order of their positions; H or OH if unused. Positions of bridges follow the written chain, without caps; N, C: chain ends. Groups on a side chain read outwards from the residue. No end group written: not given here. *: point of attachment. C20 diacid = O=C(O)CCCCCCCCCCCCCCCCCCC(=O)*; C18 diacid = O=C(O)CCCCCCCCCCCCCCCCC(=O)*; γGlu = O=C(O)[C@H](CCC(=O)[*:2])N[*:1]; AEEA = NCCOCCOCC(=O)O

B1: N-alpha-[(S)-4-Carboxy-4-(19-carboxynonadecanoylamino)butyryl]-[Glu14,His17,Arg18,His35]-pramlintide (peptide)
peptide: {C20 diacid-γGlu}-KCNTATCATQRLAEFLHRSSNNFGPILPPTNVGSHTY-NH2
modifications: disulfide 2-7
SMILES: CC[C@H](C)[C@H](NC(=O)[C@@H]1CCCN1C(=O)CNC(=O)[C@H](Cc1ccccc1)NC(=O)[C@H](CC(N)=O)NC(=O)[C@H](CC(N)=O)NC(=O)[C@H](CO)NC(=O)[C@H](CO)NC(=O)[C@H](CCCNC(=N)N)NC(=O)[C@H](Cc1c[nH]cn1)NC(=O)[C@H](CC(C)C)NC(=O)[C@H](Cc1ccccc1)NC(=O)[C@H](CCC(=O)O)NC(=O)[C@H](C)NC(=O)[C@H](CC(C)C)NC(=O)[C@H](CCCNC(=N)N)NC(=O)[C@H](CCC(N)=O)NC(=O)[C@@H](NC(=O)[C@H](C)NC(=O)[C@@H]1CSSC[C@H](NC(=O)[C@H](CCCCN)NC(=O)CC[C@H](NC(=O)CCCCCCCCCCCCCCCCCCC(=O)O)C(=O)O)C(=O)N[C@@H](CC(N)=O)C(=O)N[C@@H]([C@@H](C)O)C(=O)N[C@@H](C)C(=O)N[C@@H]([C@@H](C)O)C(=O)N1)[C@@H](C)O)C(=O)N[C@@H](CC(C)C)C(=O)N1CCC[C@H]1C(=O)N1CCC[C@H]1C(=O)N[C@H](C(=O)N[C@@H](CC(N)=O)C(=O)N[C@H](C(=O)NCC(=O)N[C@@H](CO)C(=O)N[C@@H](Cc1c[nH]cn1)C(=O)N[C@H](C(=O)N[C@@H](Cc1ccc(O)cc1)C(N)=O)[C@@H](C)O)C(C)C)[C@@H](C)O
Regarding B1, in test [1], the “CTa receptor human EC50” value came to 0.0965 nM. Further, in test [2], the “Amylin receptor human EC50” value was 0.0685 nM.

B2: N-alpha-[(S)-4-Carboxy-4-(19-carboxynonadecanoylamino)butyryl]-[des1,Glu14,His17,His35]-pramlintide (peptide)
peptide: {C20 diacid-γGlu}-CNTATCATQRLAEFLHHSSNNFGPILPPTNVGSHTY-NH2
modifications: disulfide 1-6
SMILES: CC[C@H](C)[C@H](NC(=O)[C@@H]1CCCN1C(=O)CNC(=O)[C@H](Cc1ccccc1)NC(=O)[C@H](CC(N)=O)NC(=O)[C@H](CC(N)=O)NC(=O)[C@H](CO)NC(=O)[C@H](CO)NC(=O)[C@H](Cc1c[nH]cn1)NC(=O)[C@H](Cc1c[nH]cn1)NC(=O)[C@H](CC(C)C)NC(=O)[C@H](Cc1ccccc1)NC(=O)[C@H](CCC(=O)O)NC(=O)[C@H](C)NC(=O)[C@H](CC(C)C)NC(=O)[C@H](CCCNC(=N)N)NC(=O)[C@H](CCC(N)=O)NC(=O)[C@@H](NC(=O)[C@H](C)NC(=O)[C@@H]1CSSC[C@H](NC(=O)CC[C@H](NC(=O)CCCCCCCCCCCCCCCCCCC(=O)O)C(=O)O)C(=O)N[C@@H](CC(N)=O)C(=O)N[C@@H]([C@@H](C)O)C(=O)N[C@@H](C)C(=O)N[C@@H]([C@@H](C)O)C(=O)N1)[C@@H](C)O)C(=O)N[C@@H](CC(C)C)C(=O)N1CCC[C@H]1C(=O)N1CCC[C@H]1C(=O)N[C@H](C(=O)N[C@@H](CC(N)=O)C(=O)N[C@H](C(=O)NCC(=O)N[C@@H](CO)C(=O)N[C@@H](Cc1c[nH]cn1)C(=O)N[C@H](C(=O)N[C@@H](Cc1ccc(O)cc1)C(N)=O)[C@@H](C)O)C(C)C)[C@@H](C)O
In the case of B2, the “CTa receptor human EC50” value in test [1] came to 0.286 nM. Besides, the “Amylin receptor human EC50” value in test [2] came out at 0.365 nM.

B3: N-epsilon17-[2-(2-{2-[2-(2-{2-[(S)-4-Carboxy-4-(17-carboxyheptadecanoylamino)butyrylamino]ethoxy}ethoxy)acetylamino]ethoxy}ethoxy)acetyl]-[Glu14,Lys17]-pramlint … (peptide)
peptide: KCNTATCATQRLAEFLK([AEEA-AEEA-γGlu-C18 diacid])HSSNNFGPILPPTNVGSNTY-NH2
modifications: disulfide 2-7; N-terminus assumed
SMILES: CC[C@H](C)[C@H](NC(=O)[C@@H]1CCCN1C(=O)CNC(=O)[C@H](Cc1ccccc1)NC(=O)[C@H](CC(N)=O)NC(=O)[C@H](CC(N)=O)NC(=O)[C@H](CO)NC(=O)[C@H](CO)NC(=O)[C@H](Cc1c[nH]cn1)NC(=O)[C@H](CCCCNC(=O)COCCOCCNC(=O)COCCOCCNC(=O)CC[C@H](NC(=O)CCCCCCCCCCCCCCCCC(=O)O)C(=O)O)NC(=O)[C@H](CC(C)C)NC(=O)[C@H](Cc1ccccc1)NC(=O)[C@H](CCC(=O)O)NC(=O)[C@H](C)NC(=O)[C@H](CC(C)C)NC(=O)[C@H](CCCNC(=N)N)NC(=O)[C@H](CCC(N)=O)NC(=O)[C@@H](NC(=O)[C@H](C)NC(=O)[C@@H]1CSSC[C@H](NC(=O)[C@@H](N)CCCCN)C(=O)N[C@@H](CC(N)=O)C(=O)N[C@@H]([C@@H](C)O)C(=O)N[C@@H](C)C(=O)N[C@@H]([C@@H](C)O)C(=O)N1)[C@@H](C)O)C(=O)N[C@@H](CC(C)C)C(=O)N1CCC[C@H]1C(=O)N1CCC[C@H]1C(=O)N[C@H](C(=O)N[C@@H](CC(N)=O)C(=O)N[C@H](C(=O)NCC(=O)N[C@@H](CO)C(=O)N[C@@H](CC(N)=O)C(=O)N[C@H](C(=O)N[C@@H](Cc1ccc(O)cc1)C(N)=O)[C@@H](C)O)C(C)C)[C@@H](C)O
As for B3, in test [1], the “CTa receptor human EC50” value was 4.3 nM. The “Amylin receptor human EC50” value in test [2] was 0.456 nM.

B4: N-epsilon25-[2-(2-{2-[2-(2-{2-[(S)-4-Carboxy-4-(17-carboxyheptadecanoylamino)butyrylamino]ethoxy}ethoxy)acetylamino]ethoxy}ethoxy)acetyl]-[Glu14,Ser21,Lys25]-pr … (peptide)
peptide: KCNTATCATQRLAEFLVHSSSNFGK([AEEA-AEEA-γGlu-C18 diacid])ILPPTNVGSNTY-NH2
modifications: disulfide 2-7; N-terminus assumed
SMILES: CC[C@H](C)[C@H](NC(=O)[C@H](CCCCNC(=O)COCCOCCNC(=O)COCCOCCNC(=O)CC[C@H](NC(=O)CCCCCCCCCCCCCCCCC(=O)O)C(=O)O)NC(=O)CNC(=O)[C@H](Cc1ccccc1)NC(=O)[C@H](CC(N)=O)NC(=O)[C@H](CO)NC(=O)[C@H](CO)NC(=O)[C@H](CO)NC(=O)[C@H](Cc1c[nH]cn1)NC(=O)[C@@H](NC(=O)[C@H](CC(C)C)NC(=O)[C@H](Cc1ccccc1)NC(=O)[C@H](CCC(=O)O)NC(=O)[C@H](C)NC(=O)[C@H](CC(C)C)NC(=O)[C@H](CCCNC(=N)N)NC(=O)[C@H](CCC(N)=O)NC(=O)[C@@H](NC(=O)[C@H](C)NC(=O)[C@@H]1CSSC[C@H](NC(=O)[C@@H](N)CCCCN)C(=O)N[C@@H](CC(N)=O)C(=O)N[C@@H]([C@@H](C)O)C(=O)N[C@@H](C)C(=O)N[C@@H]([C@@H](C)O)C(=O)N1)[C@@H](C)O)C(C)C)C(=O)N[C@@H](CC(C)C)C(=O)N1CCC[C@H]1C(=O)N1CCC[C@H]1C(=O)N[C@H](C(=O)N[C@@H](CC(N)=O)C(=O)N[C@H](C(=O)NCC(=O)N[C@@H](CO)C(=O)N[C@@H](CC(N)=O)C(=O)N[C@H](C(=O)N[C@@H](Cc1ccc(O)cc1)C(N)=O)[C@@H](C)O)C(C)C)[C@@H](C)O
Turning to B4, the “CTa receptor human EC50” value in test [1] amounted to 0.101 nM. The “Amylin receptor human EC50” value in test [2] is 0.089 nM.

B5: N-alpha-[(S)-4-Carboxy-4-(19-carboxynonadecanoylamino)butyryl]-[His1,Glu14,His17,Arg18,His35]-pramlintide (peptide)
peptide: {C20 diacid-γGlu}-HCNTATCATQRLAEFLHRSSNNFGPILPPTNVGSHTY-NH2
modifications: disulfide 2-7
SMILES: CC[C@H](C)[C@H](NC(=O)[C@@H]1CCCN1C(=O)CNC(=O)[C@H](Cc1ccccc1)NC(=O)[C@H](CC(N)=O)NC(=O)[C@H](CC(N)=O)NC(=O)[C@H](CO)NC(=O)[C@H](CO)NC(=O)[C@H](CCCNC(=N)N)NC(=O)[C@H](Cc1c[nH]cn1)NC(=O)[C@H](CC(C)C)NC(=O)[C@H](Cc1ccccc1)NC(=O)[C@H](CCC(=O)O)NC(=O)[C@H](C)NC(=O)[C@H](CC(C)C)NC(=O)[C@H](CCCNC(=N)N)NC(=O)[C@H](CCC(N)=O)NC(=O)[C@@H](NC(=O)[C@H](C)NC(=O)[C@@H]1CSSC[C@H](NC(=O)[C@H](Cc2c[nH]cn2)NC(=O)CC[C@H](NC(=O)CCCCCCCCCCCCCCCCCCC(=O)O)C(=O)O)C(=O)N[C@@H](CC(N)=O)C(=O)N[C@@H]([C@@H](C)O)C(=O)N[C@@H](C)C(=O)N[C@@H]([C@@H](C)O)C(=O)N1)[C@@H](C)O)C(=O)N[C@@H](CC(C)C)C(=O)N1CCC[C@H]1C(=O)N1CCC[C@H]1C(=O)N[C@H](C(=O)N[C@@H](CC(N)=O)C(=O)N[C@H](C(=O)NCC(=O)N[C@@H](CO)C(=O)N[C@@H](Cc1c[nH]cn1)C(=O)N[C@H](C(=O)N[C@@H](Cc1ccc(O)cc1)C(N)=O)[C@@H](C)O)C(C)C)[C@@H](C)O
As to B5, the “CTa receptor human EC50” value in test [1] came out at 0.11 nM. The “Amylin receptor human EC50” value in test [2] was 0.066 nM.

B6: N-alpha-[(S)-4-Carboxy-4-(17-carboxyheptadecanoylamino)butyryl]-His-[Glu14,Arg17,His35]-pramlintide (peptide)
peptide: {C18 diacid-γGlu}-HKCNTATCATQRLAEFLRHSSNNFGPILPPTNVGSHTY-NH2
modifications: disulfide 3-8
SMILES: CC[C@H](C)[C@H](NC(=O)[C@@H]1CCCN1C(=O)CNC(=O)[C@H](Cc1ccccc1)NC(=O)[C@H](CC(N)=O)NC(=O)[C@H](CC(N)=O)NC(=O)[C@H](CO)NC(=O)[C@H](CO)NC(=O)[C@H](Cc1c[nH]cn1)NC(=O)[C@H](CCCNC(=N)N)NC(=O)[C@H](CC(C)C)NC(=O)[C@H](Cc1ccccc1)NC(=O)[C@H](CCC(=O)O)NC(=O)[C@H](C)NC(=O)[C@H](CC(C)C)NC(=O)[C@H](CCCNC(=N)N)NC(=O)[C@H](CCC(N)=O)NC(=O)[C@@H](NC(=O)[C@H](C)NC(=O)[C@@H]1CSSC[C@H](NC(=O)[C@H](CCCCN)NC(=O)[C@H](Cc2c[nH]cn2)NC(=O)CC[C@H](NC(=O)CCCCCCCCCCCCCCCCC(=O)O)C(=O)O)C(=O)N[C@@H](CC(N)=O)C(=O)N[C@@H]([C@@H](C)O)C(=O)N[C@@H](C)C(=O)N[C@@H]([C@@H](C)O)C(=O)N1)[C@@H](C)O)C(=O)N[C@@H](CC(C)C)C(=O)N1CCC[C@H]1C(=O)N1CCC[C@H]1C(=O)N[C@H](C(=O)N[C@@H](CC(N)=O)C(=O)N[C@H](C(=O)NCC(=O)N[C@@H](CO)C(=O)N[C@@H](Cc1c[nH]cn1)C(=O)N[C@H](C(=O)N[C@@H](Cc1ccc(O)cc1)C(N)=O)[C@@H](C)O)C(C)C)[C@@H](C)O
In the case of B6, the “CTa receptor human EC50” value in test [1] was 0.947 nM. Moreover, the “Amylin receptor human EC50” value in test [2] amounted to 0.0795 nM.
